Data taken from paper PMC3474739, “Novel Frataxin Isoforms May Contribute to the Pathological Mechanism of Friedreich Ataxia” (PLoS ONE, 2012).

B1: frataxin isoform II (natural protein, human, UniProt Q16595 76-210, looked up)
chain: MNLRKSGTLGHPGSLDETTYERLAEETLDSLAEFFEDLADKPYTFEDYDVSFGSGVLTVKLGGDLGTYVINKQTPNKQIWLSSPSSGPKRYDWTGKNWVYSHDGVSLHELLAAELTKALKTKLDLSSLAYSGKDA
notes: human frataxin isoform II, 135 amino acids, 14.9 kDa, begins at the second AUG (methionine, 76th aa of the FXN precursor) and runs to the stop codon; Cloned into pET24a(+) with NdeI and XhoI sites; also called FXN II; FXN isoform II; source: E. coli BL21(DE3), purified
B2: human ISCU, mitochondrial mature form (natural protein, UniProt Q9H1K1 35-167, looked up)
chain: YHKKVVDHYENPRNVGSLDKTSKNVGTGLVGAPACGDVMKLQIQVDEKGKIVDARFKTFGCGSAIASSSLATEWVKGKTVEEALTIKNTDIAKELCLPPVKLHCSMLAEDAIKAALADYKLKQEPKKGEAEKK
notes: human ISCU, mitochondrial mature form; source: E. coli BL21(DE3), purified

Key:
Assay in all cases: SEC; purified ISCS/ISD11, ISCU and FXN isoform mixed at a molar ratio of 1:1:1, 1 h anaerobically at room temperature, then Superdex200 in 50 mM Tris, 200 mM NaCl, 5 µM PLP, pH 8.0; fractions analysed by SDS-PAGE
Conditions in all cases: both partners purified
[1] = target: T1, ISCS/ISD11 (human, UniProt Q9Y697 56-457; Q9HD34 1-91)
T1 construct: human mitochondrial ISCS (NFS1) that misses the first 55 amino acids of the precursor (NFS1Δ1-55); human ISD11; Both chains in pACYCDuet-1; also called NFS1Δ1-55 with ISD11; source: E. coli, co-expressed (plasmid pZM90b), purified; also co-expressed with His-ISCU in E. coli BL21(DE3) or CL100(DE3), in lysate
T1 sequence (Q9Y697 56-457, chain 1 of 2): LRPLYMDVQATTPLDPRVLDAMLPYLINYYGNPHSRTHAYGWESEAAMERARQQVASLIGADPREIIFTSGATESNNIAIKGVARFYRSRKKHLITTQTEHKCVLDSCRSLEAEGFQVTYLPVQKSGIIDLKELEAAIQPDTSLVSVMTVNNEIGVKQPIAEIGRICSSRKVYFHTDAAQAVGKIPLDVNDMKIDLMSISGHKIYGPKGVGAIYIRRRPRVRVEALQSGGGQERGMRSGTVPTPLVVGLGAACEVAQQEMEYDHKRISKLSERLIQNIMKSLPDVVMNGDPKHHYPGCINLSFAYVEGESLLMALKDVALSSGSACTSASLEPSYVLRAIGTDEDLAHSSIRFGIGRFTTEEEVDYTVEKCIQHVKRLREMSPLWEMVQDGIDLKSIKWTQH
T1 sequence (Q9HD34 whole entry, chain 2 of 2): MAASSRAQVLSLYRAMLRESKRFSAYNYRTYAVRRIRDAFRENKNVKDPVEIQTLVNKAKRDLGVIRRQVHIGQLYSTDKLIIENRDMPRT

[2] = target: B2
[3] = target: B1

binding result [1] | binding result [2] | Binder | binding result [3]
binds | – | B1 | –
binds | binds | frataxin isoform I, mature form (natural protein, human, UniProt Q16595 81-210, looked up, Cloned into pET24a(+) with NdeI and XhoI sites; also called FXN I; FXN isoform I; source: E. coli BL21(DE3), purified) SGTLGHPGSLDETTYERLAEETLDSLAEFFEDLADKPYTFEDYDVSFGSGVLTVKLGGDLGTYVINKQTPNKQIWLSSPSSGPKRYDWTGKNWVYSHDGVSLHELLAAELTKALKTKLDLSSLAYSGKDA | –
binds | – | B2 | binds
